US20040167074A1, “Therapeutic applications of mFLINT polypeptides” (priority 1998, published 2004)

What was measured:
[1] = molecular target: murine FasL of anti-CD3-stimulated mouse T cell hybridoma cells (LTT cells) (mouse) (UniProt P41047)
[2] = molecular target: murine FasL of anti-CD3-stimulated mouse T cell hybridoma cells (LTT cells) (mouse) (UniProt P41047); remark: listed apart in the source
mrecFas = assay: Baseline Fas-FasLigand interaction ELISA; format: binding; conditions: mrecFas 100 ng adsorbed
Experimental: First a baseline experiment was done for the Fas-FasLigand interaction in vitro. Unless otherwise indicated, all washing steps use TBST (Tris Buffer Saline with Tween 20 from SIGMA) and were done 3 to 6 times.
mrecFas (100 ng) was adsorbed on to ELISA plate. Then the plate was is blocked by TBST plus 0.1% Gelatine. […] After washing the plate 6 times, anti-mouse-Abs-HRP (3000 dilution, Bio-Rad) was added to the wells. After washings three times, visualization enzymatic reaction using ABTS as a substrate was performed. Unless otherwise noted, an ELISA reader commercialized by Molecular Devices Corp. (Menlo Park, Calif.) was used.

Jurkat cells = assay: Recombinant FasL induced Jurkat cell apoptosis (Annexin V/PI, FACS); format: cell-based; conditions: Jurkat + inducer alone 200 ng/ml, overnight
Experimental: One milliliter of 1×10^6 cell/ml was added into each well of 24 well tissue culture plate and treated with following reagents: soluble Fas L (200 ng), Fas L plus 1 ug mFLINT, Fas L plus 1 ug OPG2-Fc, Trail (200 ng), Trail plus 1 ug mFLINT. Cells were incubated overnight at 37° C. and then stained with Annexin V and PI.

bone marrow cells = assay: Viable cell count of bone marrow cells from 5-FU treated mice after cytokine expansion; format: cell-based, mouse; conditions: FIG. 10; 3 days with SCF and IL-6; mFLINT 1 ug/ml, anti-FasL 1 ug/ml, FasL 0.15 ug/ml; control 3,300
Text: Following a 3 day in vitro expansion period with cytokines, viable cells are counted and used to set up a CFU assay. If mFLINT or anti-FasL antibody protects progenitor cells from apoptosis, one would expect a greater number of colonies in these groups for the CFU assay. […] The values were: control cells: 3,300; FasL-treated cells: 3,000; anti-FasL-treated cells: 4,200; mFLINT-treated cells: 4,900.

[3] = molecular target: FasL expressed by anti-CD3-activated Jurkat cells
[4] = molecular target: hFasLigand (Flag-tagged) (human) (UniProt P48023); assay: competition ELISA: mrecFas 100 ng adsorbed, hFasLigand-Flag 30 ng, FLINT 10 ng; signal is FasL bound to Fas
[5] = molecular target: hFasLigand (Flag-tagged) (human) (UniProt P48023); assay: competition ELISA: mrecFas 100 ng adsorbed, hFasLigand-Flag 30 ng, FLINT 500 ng; signal is FasL bound to Fas
[6] = molecular target: hFasLigand (Flag-tagged) (human) (UniProt P48023); assay: competition ELISA: mrecFas 100 ng adsorbed, hFasLigand-Flag 30 ng, FLINT 50 ng; signal is FasL bound to Fas
[7] = molecular target: hFasLigand (Flag-tagged) (human) (UniProt P48023); assay: competition ELISA: mrecFas 100 ng adsorbed, hFasLigand-Flag 30 ng, FLINT 1 ng; signal is FasL bound to Fas
[8] = molecular target: hFasLigand (Flag-tagged) (human) (UniProt P48023); assay: competition ELISA: mrecFas 100 ng adsorbed, hFasLigand-Flag 30 ng, FLINT 100 ng; signal is FasL bound to Fas
[9] = molecular target: FasL expressed by anti-CD3-activated Jurkat cells; remark: listed apart in the source
[10] = molecular target: hFasLigand (Flag-tagged) (human) (UniProt P48023); assay: competition ELISA: mrecFas 100 ng adsorbed, hFasLigand-Flag 30 ng, FLINT 5 ng; signal is FasL bound to Fas
[11] = molecular target: soluble Fas L (recombinant FasL)
[12] = mouse, in vivo
Text: These animals are also useful in further delineating useful treatment protocols for the conditions set out above. Transgene construction. […] The 5' primer, [NT], a BglII restriction site and the 3' primer, [NT], contained an SpeI restriction enzyme site. These were used to amplify the entire FLINT and FLAG coding region. The amplified 1.1 kb fragment was ligated into the multiple cloning site of plasmid […]2 generating plasmid […] (6.7 kb). See Fox et al, Eur. J. Pharmacol. 308:195 (1996). The FLINT gene fragment was excised from […] by BglII and SpeI digestion and gel-purified. This fragment then was blunted with Klenow enzyme and ligated into the Klenow-blunted MluI site of plasmid pLIV.7, provided by John Taylor of the J. David Gladstone Institutes. See Fan et al., Proc. Nat'l Acad. Sci. 91:8724 (1994). Resultant plasmid […] also contains the apo E gene promoter/5' flanking region and an hepatic enhancer sequences called the “hepatic control region” (HCR). […] Broad tissue expression was detected in line 6494 progeny by Northern blot, RT-PCR (TaqMan), Western blot and immunohistochemical analysis and was highest in the liver and kidney. High levels of FLINT protein were detected in the circulation of line 6494 mice by ELISA assay; founder level=490 ng/ml; progeny levels ranged from 285-1360 ng/ml (n=6). No endogenous FLINT was detected by these analyses.

murine FasL of anti-CD3-stimulated mouse T cell hybridoma cells (LTT cells) (mouse), sequence (P41047 whole entry): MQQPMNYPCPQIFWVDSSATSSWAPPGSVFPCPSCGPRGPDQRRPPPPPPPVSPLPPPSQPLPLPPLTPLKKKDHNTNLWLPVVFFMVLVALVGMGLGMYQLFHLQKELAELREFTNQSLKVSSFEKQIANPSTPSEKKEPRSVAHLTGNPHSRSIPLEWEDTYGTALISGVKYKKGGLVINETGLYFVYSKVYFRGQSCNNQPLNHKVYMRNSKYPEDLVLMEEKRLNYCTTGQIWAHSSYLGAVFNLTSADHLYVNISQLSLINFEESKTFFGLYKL

B1: solubleFas (sFas)(FasFc, mouse) (Fc fusion)
chain: QGTNSISESLKLRRRVRETDKNCSEGLYQGGPFCCQPCQPGKKKVEDCKMNGGTPTCAPCTEGKEYMDKNHYADKCRRCTLCDEEHGLEVETNCTLTQNTKCKCKPDFYCDSPGCEHCVRCASCEHGTLEPCTATSNTNCRKQSPRNR
Q: Which results are given for B1?
A: MTS cytotoxicity assay, absorbance at 490 nm (absorbance at 490 nm) [1]: 1.46; SFas % Annexin V Positive [2]: 56.7%

B2: FasL: Fas ligand; hFasLigand (Flag-tagged) in ELISA, soluble Fas L in cell assays (protein)
chain: QLFHLQKELAELRESTSQMHTASSLEKQIGHPSPPPEKKELRKVAHLTGKSNSRSMPLEWEDTYGIVLLSGVKYKKGGLVINETGLYFVYSKVYFRGQSCNNLPLSHKVYMRNSKYPQDLVMMEGKMMSYCTTGQMWARSSYLGAVFNLTSADHLYVNVSELSLVNFEESQTFFGLYKL
Q: For B2, which “OD, 405 nM” value (mrecFas; FasL 1 ng) is on record?
A: .1

Q: And the “OD, 405 nM” value (mrecFas; FasL 5 ng)?
A: .2

Q: What about the “OD, 405 nM” value (mrecFas; FasL 10 ng) of the same molecule?
A: .3

Q: And the “OD, 405 nM” value (mrecFas; FasL 50 ng)?
A: .7

Q: What about the “OD, 405 nM” value (mrecFas; FasL 100 ng) of the same molecule?
A: 1.2

Q: And the “OD, 405 nM” value (mrecFas; FasL 500 ng)?
A: 1.6

Q: What about the “Cell apoptosis (Annexin V and PI, FACS)” value (Jurkat cells) of the same molecule?
A: 67.39

Q: And the “bone marrow cell count” value (bone marrow cells)?
A: 3,000 ×1000

B3: mFLINT (mature human FLINT, non-Flagged, made according to Examples 8 and 9) (receptor)
chain: VAETPTYPWRDAETGERLVCAQCPPGTFVQRPCRRDSPTTCGPCPPRHYTQFWNYLERCRYCNVLCGEREEEARACHATHNRACRCRTGFFAHAGFCLEHASCPPGAGVIAPGTPSQNTQCQPCPPGTFSASSSSSEQCQPHRNCTALGLALNVPGSSSHDTLCTSCTGFPLSTRVPGAEECERAVIDFVAFQDISIKRLQRLLQALEAPEGWGPTPRAGRAALQLKLRRRLTELLGAQDGALLVRLLQALRVARMPGLERSVRERFLPVH
modifications: glycosylated
Q: Which apoptosis of Jurkat cells (dose series of mFLINT) [3] does the source give for B3 here?
A: 14.7

Q: And the OD, 405 nM [4]?
A: 0.36 OD, 405 nM

Q: And the OD, 405 nM [5]?
A: 0.06 OD, 405 nM

Q: And the OD, 405 nM [6]?
A: 0.28 OD, 405 nM

Q: And the OD, 405 nM [7]?
A: 0.36 OD, 405 nM

Q: And the OD, 405 nM [8]?
A: 0.18 OD, 405 nM

Q: And the apoptosis of Jurkat cells, positive staining with Annexin V (FACS) [9]?
A: 18.7

Q: What about the OD, 405 nM [10] of the same molecule?
A: 0.36 OD, 405 nM

Q: What about the apoptosis of Jurkat cells, Annexin V and PI (FACS) [11] of the same molecule?
A: 3.32

B4: FLINT protein: FLINT-FLAG expressed from Apo E promoter/HCR transgene in line 6494 transgenic mice (protein)
chain: VAETPTYPWRDAETGERLVCAQCPPGTFVQRPCRRDSPTTCGPCPPRHYTQFWNYLERCRYCNVLCGEREEEARACHATHNRACRCRTGFFAHAGFCLEHASCPPGAGVIAPGTPSQNTQCQPCPPGTFSASSSSSEQCQPHRNCTALGLALNVPGSSSHDTLCTSCTGFPLSTRVPGAEECERAVIDFVAFQDISIKRLQRLLQALEAPEGWGPTPRAGRAALQLKLRRRLTELLGAQDGALLVRLLQALRVARMPGLERSVRERFLPVH
modifications: glycosylated
notes: FLINT-FLAG expressed from Apo E promoter/HCR transgene in line 6494 transgenic mice
Q: With B4 as the molecule, how does the histopathologic findings [12] read?
A: No significant histopathologic findings

Q: What about the observable abnormalities [12] of the same molecule?
A: no observable abnormalities
